In paper PMC4358012:

T1: CebR-His6 (Streptomyces scabies 87-22, UniProt C9Z452 1-352)
T1 sequence: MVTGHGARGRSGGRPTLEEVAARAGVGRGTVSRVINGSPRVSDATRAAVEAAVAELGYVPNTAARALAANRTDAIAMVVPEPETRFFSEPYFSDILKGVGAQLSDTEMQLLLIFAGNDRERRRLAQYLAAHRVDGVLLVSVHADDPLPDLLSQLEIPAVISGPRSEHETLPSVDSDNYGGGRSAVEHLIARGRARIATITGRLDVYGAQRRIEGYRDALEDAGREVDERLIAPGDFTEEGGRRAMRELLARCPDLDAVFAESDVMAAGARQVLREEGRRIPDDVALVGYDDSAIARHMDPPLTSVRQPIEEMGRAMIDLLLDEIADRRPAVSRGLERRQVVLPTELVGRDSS

B1: cbstxtB probe (dsDNA)
DNA 1: CTCCCCCAGGGGGAGCGCTCCCACTGCGCTGTA
DNA 2: TACAGCGCAGTGGGAGCGCTCCCCCTGGGGGAG
B2: cbstxtR-A probe (dsDNA)
DNA 1: TGTCAATAAGCGGGAGCGCTCCCACAGCGCTCTC
DNA 2: GAGAGCGCTGTGGGAGCGCTCCCGCTTATTGACA

Target: T1, CebR-His6
Experiment: EMSA

Binder	binding result
B1	binds
B2	binds
